This is an account of results in the DeepSol protein solubility set.

This series can be described thus: soluble on expression in E. coli; label from the status in PepcDB or PDB records.
Consider “HQQLNSLPTMEGPPTFNPPVPYFGRLQGGLTARRTIIIKGYVPPTGKSFAINFKVGSSGDIALHINPRMGNGTVVRNSLLNGSWGSEEKKITHNPFGPGQFFDLSIRCGLDRFKVYANGQHLFDFAHRLSAFQRVDTLEIQGDVTLSYVQI”, for which the “soluble on expression in E. coli” value is “soluble”.
On to “MTQFAFVFPGQGSQSVGMLAEMAANYPIVEETFAEASAALGYDLWALTQQGPAEELNKTWQTQPALLTASVALWRVWQQQGGKMPALMAGHSLGEYSALVCAGVINFADAVRLVEMRGKFMQEAVPEGTGGMSAIIGLDDASIAKACEESAEGQVVSPVNFNSPGQVVIAGHKEAVERAGAACKAAGAKRALPLPVSVPSHCALMKPAADKLAVELAKITFSAPTVPVVNNVDVKCETDAAAIRDALVRQLYNPVQWTKSVEFIAAQGVEHLYEVGPGKVLTGLTKRIVDTLTASALNEPAALSAALTQ”, for which the “soluble on expression in E. coli” value is listed as “not soluble”.
As for “MRKAHIMGIEGVGMSALARLLMAEGVAVTGCDLAPGPRARRLGVPVHHGHDPGHLADEDTLVVPTPVPPDHPEVVEARKRGLRVLRRMELLAHFLAQRPSAGVTGTHGKTTTTGMLAAILLEAGLDPWVFLGGELALLPGNARPGRGPRVAEVDESDPLFREVRVSVAVATNLEADHVAPRGERAPNYHESLEALKEAMRGFLAGAKTVVVPAMDPGLLALTEGLPRRLFGPGGEVWAEAVDLSPSGASFRLVHREGPLGEVHLRVPGRHNVHNALAAALAALALGASPEAISRGLSRFPGVGRRFERVGEVGGAWVVDDYAHHPTEVQATLEAALLSGRRVRVFFQPHRLLRTQELWEAFAQALKGAHEVVVLPVYTAGERGRESPEALSDRIAKRLEDLGRPARRMDKEEALAYARATARPEDLLLFMGAGDVTLLARRLVHEG”, the entry is “soluble”; as for “MKQQEVRQRAFAMPLTSPAFPPGPYRFVNREYMIITYRTDPAAIEAVLPEPLQMAEPVVRYEFIRMPDSTGFGDYSESGQVIPVTFRGERGSYTLAMFLDDQPPLAGGRELWGFPKKAGKPRLEVHQDTLVGSLDFGPVRIATGTMGYKYEALDRSALLASLAEPNFLLKIIPHVDGSPRICELVRYHTTDVAIKGAWSAPGSLELHPHALAPVAALPVLEVLSARHFVCDLTLDLGTVVFDYLRQ”, “soluble”.
With “MGSDKIHHHHHHMKQIPLAERMRPKTLADYVGQQHLIGSGAVLRQMIEQGQTPSMILWGPPGVGKTTLAEIIAHEVDAPFYTLSAVSSGVKEVREVIADIESNRGNLFDKGGRAILFIDEIHRFSKSQQDSLLAAVERGIVTLIGATTENPSFEVIRPLLSRCQVYVLKPQSDEDLLLLAHRAIDRDELLAAKHPVLEETEALLLYAGGDARKLLNILDLLATSEVEDRLVITNEKIRQRLQENPAAFDKGGELHYDIASAFIKSIRGSDPDAAIYWLARLIDGGEEPSFIARRLIISASEDIGLANPNAMLIAMACAEALDRIGWPEGRIPLAEATIYLATSEKSNSAYLAIDSALEYVRQSGNLPVPLHLRNAPTRLMADLDYGKGYKYSHDFPEHFVSQQYLPDKAANTSFWTPQMHTVHEAKLGERMKRWWKREKSQKDTAE”, the “soluble on expression in E. coli” value is listed as “not soluble”.
As for “MPESTNFTEEITQWVESLPNWGKAAVAGGVALAVYIPYKFMATRPRKSPLNENWKPDVVYLYQFPRARLLPNLSPFCMKVETWLRMSDITYEIPPCSLSTRSQEGTLPFVELNGKEYYDSSFILRDIDQVIKHTSLDDHLSAEQKATSRAFEAMSEKSLAISACYYRMENVEKMLDQFDPKLFGIFGFLFKLIGSRTYVSALLRRITGSDIGFHSREDIINIGSEDLKAISKYLGNKHYFHGFKPTKVDACIFSHLCQIYYAPYTSEHRDLIDGECKNLAEYVERIKNRFYPDWDDVTTKFSTDTSNWKKRHVARNGNGKH”, the entry is “not soluble”; as for “GMYANKVKKIAAVHDLSGMGRVSLTVVIPILSSMGFQVCPLPTAVLSNHTQYPGFSFLDLTDEMPKIIAEWKKLEVQFDAIYTGYLGSPRQIQIVSDFIKDFRQPDSLIVADPVLGDNGRLYTNFDMEMVKEMRHLITKADVITPNLTELFYLLDEPYKADSTDEELKEYLRLLSDKGPQVVIITSVPVHDEPHKTSVYAYNRQGNRYWKVTCPYLPAHYPGTGDTFTSVITGSLMQGDSLPMALDRATQFILQGIRATFGYEYDNREGILLEKVLHNLDMPIQMASYELI”, “soluble”.
In the case of “MVDGFVQPVGEGLADQLVGHQVGYGGVQWDQCLAEVGDVAVVHFFHQAVRQVGFVEQGVEAVVAGEQRRRGEEELLGDLQHRLDPFLDAGFAGHAVGGVEQVRYLFDVGVDEAGEYVFRVLALRLDGAMQVGQAAGYQISQVTVAGFAEVRLLDEFTEGSGVHGVSHTTGMVKKRRNIAGGARRLRRDCHNRFVVMRG”, the “soluble on expression in E. coli” value is “not soluble”.
On to “MGSDKIHHHHHHMSRAHVDHRDLVRFAEERVNLPKEKADEFRAQARRLREKLEGYLAEHPDFALKKMLLSGSLAKGTALRSLNDIDVAVYISGSDAPHDLQALLNYLAEKLRKAFPNFSPEQVQPQTYSVTVNFRGTGLNVDVVPVLYAGLPDWRGNLISQDDGSFLETSIPLHLECARKRKQAQPTHFAQVVRLIKYWARRMKQEHDGFRFKSFMIEMILAKLTDNGTDLSDYPEALQSFFTYVAESNLSERIVFEDYYQASTVAPSADRVQIIDPINASNNVARLYTAQNAAAIVDAALDAGDAIDAALKAPTKELTVHYWQKVFGSSFQG”, for which the “soluble on expression in E. coli” value was “not soluble”.
On to “MAGDPMSGSKTSAEKKESETEKSSDIAQVKIKDVSYTLPSKYDKSTSDDQLVLKVNVAVKNTGKDPLNVDSMDFTLYQGDTKMSDTDPEDYSEKLQGSTINADKSVEGNLFFVVDKGKQYELNYTPESYGDKKPKSVTFKIDGKDKKILATADKLQDSAKALSAYVDVLLFGKDNADFEKITGANKNEIVNDFNESAKDGYLSASGLSSTYADSKALDNIVNGIKEGLSKNSSIQAKTTSISKDEAIVEATVKPVDASSLSDRIEDKVKDYYSKNSSASYEEAVKYALQVYPEEFKKLGPASSEKTVEVKMKKNDIDQWQLDMDDYRAAELVEAFIKELEHHHHHH”, for which the “soluble on expression in E. coli” value is reported as “soluble”.
The same measure for “MPTIKDYYLPKRPTLLFSLHPEPTQAIINGTKILEYRRRFFARPFQAFVYTTGDNGGIQLFLRCDQGLQLVPEQLALVGALLQHDAPTTTAAYFEGAKAGLALPITAFTTLPNIPLAQLRRQFENFVTPRSYVFLDQPDRQAQLDWLLTQPCESLTILDWRKRYAALATLLQKLEHHHHHH”: “not soluble”; for “GPGSMSEEHANDSTLRVKVATINDKGEEVYASSLSHDGTYLAAVFGDGALVIFNPSTFSALDSSAAGKGYDNVPCTAVQWLESSEGGLYRLVSVSSAGGVFIWQWDGAALHRTNRVPEKGNEITCLAVSPECDMFITAGSDRTVRLYDADGTLKANLQMAHDESGVSRLAHTSRIFSVRFVSQGVAVSGGWGGPLQVWDLKANEARVEIRGAQVSSDGIELITGTNCVLVASRRQKEQLQVFDCVSGQELADDSARLSMALGELIPLSSRLCKTSGLVWTITSSPSKVLVTSYSTGQLIASYDSAYDLMNISIFEGLPNNAYISCAEGKLLFATVKQ”: “not soluble”; for “MAHHHHHHMITLQLEQHRQQLENELRKVQLQQAQQQQQLQHVQHHHNQHNQHQQQQQLQYQQSLPPVQTTMVTIDGRLYRMVSASSGEAFVNRGQPCRDLHFVDRSALVSDGSAGADGRTEAAAPQPSNHPGVCMPVSPQAELSPQQQQQHMIITVAGDRSALGETTSAAAAASLAKSSAPGTNVMLVMPTPSASHKVKYGY”: “soluble”.
As for “HVGYPLLLKWLPLKPKANDEGEHFAERHYKASASDNKLPSVTIIIPAYNEEQWIAEKIRNLASLDYPRDKLKVVIACDGCTDKTAEIAQDTIQEAICSDTLFIVNDHSINRGKVALINEEMKHVTSDITALSDTSALVSCDSLLLASQHYQNEKVGVVNATYQIMRTSNQGEAAYWQYQSRVKHQESLLGSTIGSHGAFYTFRTKLFEPLEAGTINDDFILPMRIVLRGFTSVYEPKMLALELEQSSDDADFKRRLRISAGNMQQLMQLKKLLLPRYRGTAFAFLSGKVLR”, the entry is “not soluble”.
As for “MSLDLEFHGVMRFYFQDKAAGNFATKCIRVSSTATTQDVIETLAEKFRPDMRMLSSPKYSLYEVHVSGERRLDIDEKPLVVQLNWNKDDREGRFVLKNENDAIPPKAQSNGPEKQEKEGVIQNFKRTLSKKEKKEKKKREKEALRQASDKDDRPFQGEDVENSRLAAEVYKDMPETSFTRTISNPEVVMKRRRQQKLEKRMQEFRSSDGRPDSGGTLRIYADSLKPNIPYKTILLSTTDPADFAVAEALEKYGLEKENPKDYCIARVMLPPGAQHSDEKGAKEIILDDDECPLQIFREWPSDKGILVFQLKRRPPDHIPKKTKKHLEGKTPKGKERADGSGYGSTLPPEKLPYLVELSPGRRNHFAYYNYHTYEDGSDSRDKPKLYRLQLSVTEVGTEKLDDNSIQLFGPGIQPHHCDLTNMDGVVTVTPRSMDAETYVEGQRISETTMLQSGMKVQFGASHVFKFVDPSQDHALAKRSVDGGLMVKGPRHKPGIVQETTFDLGGDIHSGTALPTSKSTTRLDSDRVSSASSTAERGMVKPMIRVEQQPDYRRQESRTQDASGPELILPASIEFRESSEDSFLSAIINYTNSSTVHFKLSPTYVLYMACRYVLSNQYRPDISPTERTHKVIAVVNKMVSMMEGVIQKQKNIAGALAFWMANASELLNFIKQDRDLSRITLDAQDVLAHLVQMAFKYLVHCLQSELNNYMPAFLDDPEENSLQRPKIDDVLHTLTGAMSLLRRCRVNAALTIQLFSQLFHFINMWLFNRLVTDPDSGLCSHYWGAIIRQQLGHIEAWAEKQGLELAADCHLSRIVQATTLLTMDKYAPDDIPNINSTCFKLNSLQLQALLQNYHCAPDEPFIPTDLIENVVTVAENTADELARSDGREVQLEEDPDLQLPFLLPEDGYSCDVVRNIPNGLQEFLDPLCQRGFCRLIPHTRSPGTWTIYFEGADYESHLLREGHHHHHH”, the entry is “soluble”; as for “MSLKFVGLVGSNYDQSYNRKLLEFIRRYFKLKFELEVLEIDEVPMFNQDEKWDESFQLRYLYNKITRADGVIIATPEHNHTISASLKSVLEWLSYEVHPFENKPVMIVGASYYDQGTSRAQVHLRKILDAPGVNAYTLPGNEFLLGKAKEAFDNNGNITNEGTVKFLETCLDNFVKYVGVVSKLKKPKPIESEDLDCGKPIATTITEVDPDDPEWVEKVAAFTGAVSGDTYVKLDHGILTVNQIDMFLKAMPFELTYADDNNQFLYYNNAHQDPDTMFAKRVPPQSGSRMSTVHGSLPPARMKNVEWVIGTLRNGNQEYVRTIVPGSPAGVINTHNYQAMYYPDGSYAGINEIVFNFQPWLDWYLKETGQRLVGGSGPFAPAAGGHGDADATSGASDSGDAGGHGGDADATAGASYEGHHHHHH”, “soluble”; as for “MQHHGVTKCNITCSKMTSKIPVALLIHYQQNQASCGKRAIILETRQHRLFCADPKEQWVKDAMQHLDRQAAALTRNG”, “soluble”.
“MKLKIVFFGASLAGKSTTVRKLYEILKEKGLVKGEFMSIDTDEKRTLFVEMFLSKIPIDGQEIDFKILTTPGQFRLHPLRKAIMQGVDGLVFTVDSQTGREEINFLVLRETAHVLKDSTWIYTQYPSLFSTTREIFPTHFPLEHHHHHH”: the “soluble on expression in E. coli” value is recorded as “not soluble”.
The same measure for “MGSGKPPLILASGSPRRKALLEALGYPIRVAVPGVEEEGLPLPPKALAQALARRKGEAVQGEWVLAADTVVDLDGEVLGKPKDPEENRLFLRRLSGRLHLVHTAFYLRTPKEVVEEVHTARVFFRPLSEEEIAWYVGSGEGLDKAGGYGAQGLGMALLERVEGDFYTVVGLPVSRVFALLWARGFRP”: “soluble”; for “MKPPSSIQTSEFDSSDEEPIEDEQTPIHISWLSLSRVNCSQFLGLCALPGCKFKDVRRNVQKDTEELKSCGIQDIFVFCTRGELSKYRVPNLLDLYQQCGIITHHHPIADGGTPDIASCCEIMEELTTCLKNYRKTLIHSYGGLGRSCLVAACLLLYLSDTISPEQAIDSLRDLRGSGAIQTIKQYNYLHEFRDKLAAHLSSRDSQSRSVSR”: “soluble”.
